Experimental findings from patent US6361998B1, “Efficient culture of stem cells for the production of hemoglobin” (Hemosol Inc., priority 1999, dated 2002) are described below.

Assay [1] relates to erythroid-cultured CD34^+lin^- cells. Description: Methylcellulose colony-forming assay after 14 days liquid culture in G418. It is filed as cell-based, human. The conditions noted are these: after 14 days liquid culture with 500 ug/ml G418. As to the method:
Cells transfected with either EpoR(t439; R154C)/pcDNA3.1 or the pcDNA3.1 vector alone were placed in liquid culture (IMDM, 1% BSA, 10 ng/ml rhIL-3, 50 ng/ml SCF and 2 U/ml EPO) in the presence of 500 ug/ml G418 for 14 days. At this time, cells were counted for viability by trypan-blue dye exclusion and methylcellose colony-forming assays were performed in IMDM, 1% methylcellulose, 30% FBS, 1% BSA, 10^−4 M β mercaptoethanol, and […] glutamine, IL-3 (10 ng/ml), SCF (50 ng/ml), EPO (2 U/ml) and 500 ug/ml G418. […] No colonies were detected in the untransfected or “mock” transfected controls. Thus, expression of the EpoR(t439; R154C)/pcDNA3.1 plasmid not only conferred G418 resistance but increased the number of erythroid progenitors detectable after 14 days of liquid culture.

A further assay relates to BaF3 cells. Description: Cytokine-dependency growth of BaF3 cells transfected with human EpoR constructs. It is filed as cell-based, murine. The conditions noted are these: for growth of BaF3 transfectants: no exogenous IL-3. Here is the method:
The functionality of the EpoR(t439; R154C) was tested and compared to the wild-type EpoR (wtEpoR) and EpoR(t439) using the BaF3 cell line. The cDNAs encoding these three different EpoRs were subcloned into the pcDNA3.1 expression vector, which provides high-level constitutive expression of proteins in mammalian cells and also contains the neomycin gene for the selection of stable transfectant with G418. The vector constructs were electroporated into BaF3 cells and stable transfectants were isolated in the presence of 600 ug/ml G418. BaF3 transfectants were maintained in RPMI-1640 with 10% FBS and 5% WEHI conditioned medium (a source of murine IL-3), except during the cytokine-dependency studies when cells were maintained in RPMI-1640 plus 10% FBS, along with the indicated cytokines. Growth of the different EpoR transfectants in the presence of either murine IL-3 or two different doses of Epo was compared to that of the parental (non-transfected) BaF3 cells (FIG. 7). […] All three EpoR constructs encode functional receptors that allow expansion of the BaF3 cells in the presence of Epo without exogenous IL-3.

Assay [2] has as its system erythroid-cultured CD34^+lin^- cells. Briefly: Methylcellulose colony-forming assay two to three days after transfection of cultured erythroid cells. It counts as cell-based, human. The conditions noted are these: for # of erythroid colonies in EpoR(t439; R154C) transfected samples: BFU-E and CFU-E; for increase in erythroid colonies: versus untransfected or mock transfected control. Here is the method:
CD34^+lin^− cells cultured for 7 to 10 days in EPSFM+LDL were washed in EB and subjected to electroporation in the presence of EpoR(t439; R154C)/pcDNA3.1 expression vector as described in Example 3. Two to three days post-transfection, aliquots of untransfected and EpoR(t439; R154C)/pcDNA3.1 transfected cells were counted for viability by trypan-blue dye exclusion and methylcellose colony-forming assays were performed in IMDM, 1% methylcellulose, 30% FBS, 1% BSA, 10^−4 M β mercaptoethanol, and […] glutamine, IL-3 (10 ng/ml), SCF (50 ng/ml) and EPO (2 U/ml).

B1: EpoR(t439; R154C): human EpoR truncated at amino acid 439 with R154C point mutation; constitutively active (SEQ ID NOS 6 and 7) (protein, listed as Homo sapiens)
chain: MDHLGASLWPQVGSLCLLLAGAAWAPPPNLPDPKFESKAALLAARGPEELLCFTERLEDLVCFWEEAASAGVGPGNYSFSYQLEDEPWKLCRLHQAPTARGAVRFWCSLPTADTSSFVPLELRVTAASGAPRYHRVIHINEVVLLDAPVGLVACLADESGHVVLRWLPPPETPMTSHIRYEVDVSAGNGAGSVQRVEILEGRTECVLSNLRGRTRYTFAVRARMAEPSFGGFWSAWSEPVSLLTPSDLDPLILTLSLILVVILVLLTVLALLSHRRALKQKIWPGIPSPESEFEGLFTTHKGNFQLWLYQNDGCLWWSPCTPFTEDPPASLEVLSERCWGTMQAVEPGTDDEGPLLEPVGSEHAQDTYLVLDKWLLPRNPPSEDLPGPGGSVDIVAMDEGSEASSCSSALASKPSPEGASAASFEYTILDPSSQLLRP
As for B1, the “erythroid colonies compared to pcDNA3.1 vector alone” value in assay [1] was “More erythroid colonies”. Besides, the “growth of BaF3 transfectants” value in the assay with BaF3 cells (0.02 U/ml Epo) and with BaF3 cells (2 U/ml Epo) was “grew in the presence of either 0.02 or 2 U/ml Epo but less than in the presence of IL-3” throughout. Moreover, in the assay with BaF3 cells (absence of exogenous cytokines), the “expansion of BaF3 cells” value is recorded as “supported expansion”. The “functionality of the EpoR” value with BaF3 cells (conclusion from BaF3 growth) is on record as “constitutively active form of the EpoR”. The “# of erythroid colonies in EpoR(t439; R154C) transfected samples” value came out at 428 in assay [2] (Experiment # 1), 522 in assay [2] (Experiment # 2) and 66 in assay [2] (Experiment # 3). The “increase in erythroid colonies” value in assay [2] (Experiment # 1) is reported as “+388”; in assay [2] (Experiment # 2), “+98”; in assay [2] (Experiment # 3) it was “+66”.
